Results as given in the nanobody polyreactivity screen of Harvey et al. (2022).

assay: yeast display, Sf9 membrane polyspecificity reagent, FACS + sequencing; frameworks hold sequencing errors
How it was run: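 Sorting gates, low and high (top ~1%), were placed on anti-HA fluorescence to track expression and on streptavidin fluorescence to track reagent binding. A clone's polyreactivity label is taken from the gate it came out of. The reagent was 10% biotinylated, detergent-solubilized Sf9 membrane, applied for 1 hour at 4 °C to galactose-induced yeast display cells.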

Row | Sequence | polyreactivity (PSR sort gate)
1 | QVQLVESGGGLVQAGGSLRLSCAAYGSNFYLYAMGWYRQAPGKERELVAAITRGGTTNYADSVKGRFTISRDNAKNTVYLQMNSLKPEDTAVYYCAKEVTTLLSLYEIVDRDYWGQGTQVTVSS | low polyreactivity
2 | QVQLVESGGGLVQAGGSLRLSCAASGSIFQANAMGWYRQAPGKERELLAAISSRGGSTYYADSVKGRFTISRDNAKNTVYLQMNSLKPGDTAVYYCAADSIQYTARPYDYWGQGTQVTVSS | low polyreactivity
3 | QVQLVESGGGLVQAGGSLRLSCAASGSIFNYYAMGWYRQAPGKERELVAGITTSGGSTYYADSVKGRFTISRDNAKNTVYLQMNSLKPEDTAVYYCAAYDYISSTYFLDDYWGQGTQVTVSS | low polyreactivity
4 | QVQLESGGGLVQAGGSLRLSCAASGITFQLYDMGWYRQAPGKERELVAAINSSGGSTYYADSVKGRFTISRDNAKNTVYLQMNSLKPEDTAVYYCNVGFAPVTNDQPVSTEYDYWGQGTQVTVSS | low polyreactivity
5 | QVQLVESGGGLVQAGGSLRLSCAASGRTFYSYARGWYRQAPGKERELVAAINSGGDTYYADSVKGRFTISRDNAKNTVYLQMNSLKPEDTAVDYCAADIEVQYITLGVELPYDYWGQGTQVTVSS | low polyreactivity
6 | QVQLVESGGGLVQAGGSLRLRCAASGRNFVANGKGWYRQAPGKERELVAAINDGDDTYYADSVKGRFTISRDNAQNTVYLQMNSLKPEDTEVYYCAADIIYGYEVYTYTSDYWGQGTQVTVSS | low polyreactivity
7 | QVQLVESGGGLVQAGGSLRLSCAASGRTFHYYAMGWYRQAPGKERELVAGISRRGGSTSYADSVKGRFTISRDNAKNTLYLQMNSLKPEDTAVYYCNADRVTFSWPVNYYWVDYWGQGTQVTVSS | high polyreactivity
8 | QVQLEESGGRLVQAGGSLRLICAASGRIFRFYTMGWYIQAPGKERELVAAITSSGRTYYADSVKGRFTISRDNAKNTVYLQMKSLKPEDTAVYYCNKYFRPRTILPSPGEYLGQGTQVTVSS | high polyreactivity
9 | QVQLVESGGGLVQAGGSLRLSCAASGITFRRYTMGWYRQAPGKEMELVAAISRIGGSTYYADSVKGRFTISRDNAKNTVYLQMNSLKPEDTAVYYCARAGRVQPGSEDDYWGQGTQVTVSS | high polyreactivity
10 | QVQIVESGGGLVQAGGSLRLSCAASGRIFDGNALGWYRQAPGKERELVAAISRIGGTYYADSVKGRFTISRDNAKNTVYLQMNRLKPEDTAVYYCAADPSSVGYHVEYDYWGQGTQVTVSS | low polyreactivity
11 | QVQLVESGGGLVQAGGSLRLSCAASAFILDWNTIGWYRQAPRKEREFVAAITSRGGDTYYADSVKGRFTISRDNAKNTDYFQMNSMKPEDTAVYYWNKGFKLWPRYGYDYWGLGTQVTVSS | low polyreactivity
12 | QVHLVESGGGLVQAGGSLRLSCAASARIFRYYTMGWNRQAPGKERELVAAISVSGGSTYYADSVKGRFTSSRDNAKNTVYILMNSLKPEDTAVYYCAAPFVWSSYRGYDYWGQGSQVTVSS | high polyreactivity
13 | QVQLQESGGGLVQAGGSLRLSCAASGYISLAQTIGWYRQAPGTEREFVASIALGSSTYYTDSVKGSFTISRDNAKTTVYLQMNSLKPEDTAVYYCAARVGASYAHDYWGQGTQVTVSS | low polyreactivity
14 | QVQLVESVGGLVQAGGSLRLSCAASGSTFVRYTMGWYRQAPGKERALVAAISWNGGRTYYADSVKGRFTISRDNTKNTVYLQMNSLKPEDTAVYYCNAVRLVYTGNSDYGYWGQGTQVTVSS | high polyreactivity
15 | QVQLVESGGGLVQAGGSLRLTCAASGFIFRYYAMGWYRQAHGKEMELVAAIDYSGGSTNYADSVKGRFTISRDNSKNTVYLQMNSLKPEDTAVYYCKAEYTWHRGYDYWGLGTQVTVSS | low polyreactivity
16 | QVQLVESGGGLVQAGGSLRLSCAASGSTFHRYPMGWYRQAPGKERELVAAISVRTGSTYYADSVKGRFTISRDNAKNTDYLQINRLTPEDTAVYYCAVGKQINGKIYRYDYWGQGTQVTVSS | high polyreactivity
17 | QVQLVESGGGLVQAGGSLRLSCDASGSTFASYAMGWYRQAPGKERELVAAIRWSGGTTYYADSVKGRFTISRDNAKNTVYLLMNSLKTEDTAVYYCNADRYYLYYYWGQGTQVTVSS | low polyreactivity
18 | QVQLVESGGGLVQAGGSLRLSCAASGLTFVTYVMGWYRLAPGKERELVAAISYSGGSTYYADSVKARFTISRDNAKNTVYLLMNSLKPEDTAVYYCAAEWYGYEEDDYWGQGTQVTVSS | low polyreactivity
19 | QVQLVESGGGLVQAGGSLRLICAASGRIFLWNAMGWYRQAPGKEREFVATISWNDAISYYADSVKGRFTISRDNAKNSVYLQMNSLKPEDTAVYYCNVDPKIVLSFGYDYWGQGTQVTVSS | low polyreactivity
20 | QVQLVESGAGLVQAGGSLRLSCAASGLTFRSYAMGWYRQAPGKERELVAAITRSGGSTYYADSVKGRFTISRDNAKNTVYLQMNSLKPEDTAVYYCAARYKGNPDRYGYWGQGTQVTVSS | high polyreactivity
21 | QVQLVESVGGLVQAGGSLRLSCAASGSISIRNAMGWYRQAPGKERELVAAITYSGGSTYYADSVKGRFTISRDNAKNTVYLQMNSLKPEDTAVYYCNKDTYLATYLYDYWGQGTQVTVSS | low polyreactivity

Row | Sequence | polyreactivity (PSR sort gate)
22 | QVQLVESGGGLDQAGGSLRLSCAASGIILYGYTMGGYRQAPGKERELVAAINRGGSTNYADSVKGRFTISRDNAKNTVYLQMNSLKPEDTAVYYCAVDTVVASTYDYWGQGTQVTVSS | low polyreactivity
23 | QVQLVESGGGLVQAGGSLRLSCAASGSIFNGNAMGWYRQAPGKERELVAAITRRGGRTYYADSVKGRFTISRDNAKNTVYLQMNSLKPEDTAVYYCNAYSKAVQGGYYYWGQGTQVTVSS | high polyreactivity
24 | QVQLVESGGRLHQAGGSLRLICAASGSIIATYAMGWYRPAHGKERELVAAITSSDGSTNYADSVKGRFTISRDNAKNTVYLQMNCLTPEDTAVYYCAKDVWRHYLNLYDYWGQGTQVTVSS | low polyreactivity
25 | QVQLVESGGGLVQAGGSLRLSCAASGFTFYGYAMAWYRQAPGTERELVAAITRRGGNTYYADSVKGRFTISRDNAKNTVYLQMNSLKPEDTAVYYCNAVLRYGHGPYQKGDYWGQGSQVTVSS | high polyreactivity
26 | QVQLVESGGGLVQAGGSLRLSCAASGSPFYNYAMGWYRQAPGKERELVAAIRNGGGTNYADSVKGRFTISRDNAKNTVYLQMNSLKPEDTAVYDCNKAYGVSGTGVDYWGQGTQVTVSS | low polyreactivity
27 | QVQLVESGGGLVQAGGSLRLSCAASGFIFRVNAMGWSRQEPGKERELVAAISASGGTTYYADSVKGRFTISRDNAKNTVYLQMNSQKPEDTAVYYCIAPSRTRYDFWGQGTQVTVSW | low polyreactivity
28 | QVQLVESGGGLVQAGGSLRLSCAASGSIFVYNAMGWYRQAPGKERELVAAISWSGGRTYYADSVKGRFTISRDNAKNTVYIQMNSLKPEDTAVYYCAARGPTRVPYNYWGQGTQVTVSS | high polyreactivity
29 | QDHLVESGGGLVQAGGSLRLSCAASGRIFGGYVMGRYRQAPGTERELVAAINGGGGSTYYADSVKGRFTISRDNAKNTVYLQMNSLKPEDTAVYYCMLVKRSQRKSTIDFDYWGQGTQVTVSS | high polyreactivity
30 | QVQLVESGGGLVQAGGSLRLSCAASGSTFFRNAMGCYRQAPGKERELVADISASGGSTYYADSVKGRFTISRDNAKNTVYLQMNSLKPEDTAVYYCNALYIYFYNYLTMDYWGQGTQVTVSS | low polyreactivity
31 | QVQLVESGGGLDQAGGSLRLTCAASGSIFVYNAMGWYRQAPGKEREFVAAITWRGGRTYYADSVKGRFTISRDNAKNTVYLQMNSLKPEDTAVYYCAADGGSTLDYYWGQGTQVTVSS | low polyreactivity
32 | QVQLVESGGGLVQAGGSLRLSCAASGLIFGRYAMGWYRQAPGKERELVAAISSSGVRTYYADSVKGRFTISRDNAKNTVYLQMNSLKPEDTAVSYCAAAYWSSREDTVIKSYYWGQGTQVTVSS | high polyreactivity
33 | QVQLVESGGGLVQAGGSLRLSCAASGITFQYYAMGWYRQAPGKERELVAAISGGGSTNYADSVKGRFTISRDNAKNTVYLQMNSLKPEDTAVYYCAAADLNLELDYWGQGTQVTVSS | high polyreactivity
34 | QVQLGESGGGLVQAGGSLRLSCAASGSIVDVYAMGWYRPAPGKERELVADITSGDITNYADSVKGRFTISRDNAKNTVYLQMNSLKPEDTAVYYCATPLKLAYSPKLDYWGQGTQLTVSS | low polyreactivity
35 | QVQLVESGGGLVQAGGSLRLSCAASGLIFSRNAMGWYRQAPGKERELVAAISGGGGSTYYADSVKGRFTISRDNAKNNVYLQMHSLKQEATAVYDCAAKGYWWRTPWIATYDYWGQGTQVTVSS | high polyreactivity
36 | QVQLVESGGGLVQAGGSLRLSCAASGGIFDRYAMGWYRQAPGKERELVAAITSGGSTNYADSVKGRFTISRDNAKNTVYLQMNSLKPEDTAVYYCNADLGILSGVAEGPTFREYDYWGQGTQVTVSS | low polyreactivity
37 | QVQLVESGGGLVQAGGSLRLSCAASGRIFDNYAMGWYRQAPGKDREWVAAISSRGRSTYYADSVKGRFTISRDNAKNTVYLQMNSLKPEDTAVYYCAKDLGYRGRYNYWGQGTQVTVSS | low polyreactivity
38 | QVQLVESGVGLVQAGGSLRLSCAASGRIFGFYAMGWYRQAPGKESELVAAITVSGSSTRYADSVKGRFTISRDIAKNTFYLQMNSLKPEDTGVYYCAAFNRCSGGFDYWGQGTQVTVSS | high polyreactivity
39 | QVQLVESGGGLVQAGGSLRLSCAASGRTFYFYVMGWYRQAPGKERELVARISWSGGSTYYADSVKGRFTISRDNAKNTVYLQMNSLKPEDTAVYYCARQYKYPSSGEYDSWGQGTQVSVSS | low polyreactivity
40 | QVQLVESGGGLVQAGGSLRLSCAASGFIYYYNAMGWYSQAPGKERELVAAISSRGTSTYYADSVKGRFTISRENAKNTVYLQMNSLKPEDTAVYYCNALGNFGMDYWGQGNQVTVSS | high polyreactivity
41 | QVQLVESGGGLVQAGGSLRLSCAASGFTFTYYAMGWYRQAPGKERELVAAITKSGGSTYYADSVKGRFTISRDNAKNTVYLQMNSLKPEDTAVYYCAADTRYGRERYYWGQGTQVTVSS | high polyreactivity
